Measured values taken from paper PMC3638400 (Philosophical Transactions of the Royal Society B: …, 2013).
Numbering of substitutions follows the chain as printed. Numbers in names are those of the source. Values belong to the molecule of their own block, whether it stands above or below them.

Key:
[1] = molecular target: desmin (assembled into filaments, or immobilised on a sensor chip) (not stated (chicken gizzard desmin or recombinant human desmin prepared)) (UniProt P17661); experiment: co-sedimentation; high-speed; filaments assembled at 0.2 mg ml^-1 with WT CRYAB at 1 : 1 molar ratio; 20 mM HEPES, 100 mM NaCl, 1 mM MgCl2, 1 mM DTT, pH 6.3; 23, 39 or 44°C
[2] = molecular target: the molecule itself; experiment: SEC; Superformance column packed with Fractogel EMD BioSEC, calibrated with protein standards; 20 mM Tris-HCl pH 7.4, 100 mM NaCl, room temperature; self-association into oligomers
[3] = molecular target: T1, filaments of keratins 7 and 18 (human, UniProt P08729 1-469; P05783 1-430); experiment: co-sedimentation; filaments assembled with the sHSP (desmin : sHSP 1 : 1 molar ratio) at three temperatures (22, 37, 44°C named in the text); pellet and supernatant by SDS-PAGE, Coomassie Blue; conditions: both partners purified
T1 construct: keratin 7, recombinant human; keratin 18, recombinant human; In vitro assembled keratin filaments; also called keratin filaments
T1 sequence (looked up) 1: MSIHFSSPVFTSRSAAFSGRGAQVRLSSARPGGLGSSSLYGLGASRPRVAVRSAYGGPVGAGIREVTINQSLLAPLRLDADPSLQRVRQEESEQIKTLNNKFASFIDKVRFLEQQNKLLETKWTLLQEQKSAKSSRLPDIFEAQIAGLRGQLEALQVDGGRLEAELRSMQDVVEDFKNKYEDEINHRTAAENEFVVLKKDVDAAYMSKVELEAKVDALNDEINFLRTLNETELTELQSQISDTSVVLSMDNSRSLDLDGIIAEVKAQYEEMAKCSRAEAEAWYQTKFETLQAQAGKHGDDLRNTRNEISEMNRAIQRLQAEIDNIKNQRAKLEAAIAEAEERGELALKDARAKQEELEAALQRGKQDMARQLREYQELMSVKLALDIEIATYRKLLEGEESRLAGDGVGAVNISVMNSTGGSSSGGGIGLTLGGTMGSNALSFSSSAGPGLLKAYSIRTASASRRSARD
T1 sequence (looked up) 2: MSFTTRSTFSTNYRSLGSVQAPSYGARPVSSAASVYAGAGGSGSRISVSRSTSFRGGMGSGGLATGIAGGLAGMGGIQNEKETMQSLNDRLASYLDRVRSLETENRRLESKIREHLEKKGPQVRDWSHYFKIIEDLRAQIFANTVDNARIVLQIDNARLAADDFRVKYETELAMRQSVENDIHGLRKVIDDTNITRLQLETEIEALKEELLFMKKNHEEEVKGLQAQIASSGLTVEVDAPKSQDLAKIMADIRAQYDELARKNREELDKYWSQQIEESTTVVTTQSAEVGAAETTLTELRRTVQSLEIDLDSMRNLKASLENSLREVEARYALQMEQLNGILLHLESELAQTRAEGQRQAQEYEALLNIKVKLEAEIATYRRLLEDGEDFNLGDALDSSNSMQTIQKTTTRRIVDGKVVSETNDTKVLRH

[4] = molecular target: T2, glial fibrillary acidic protein (GFAP) (human, UniProt P14136 1-432); experiment: SPR; Biacore 3000; desmin, GFAP and vimentin immobilised on a CM5 chip; CRYAB injected at 20 g ml^-1 (so in the source) for 7 min at 37°C, then washed 7 min; 10 mM HEPES pH 7.4, 0.15 M NaCl, 3.4 mM EDTA, 0.005% P20; double referencing; conditions: both partners purified
T2 construct: glial fibrillary acidic protein, recombinant human; Assembled into filaments for co-sedimentation and viscometry; immobilised on the chip for SPR; also called WT GFAP; GFAP filaments
T2 sequence (P14136 whole entry): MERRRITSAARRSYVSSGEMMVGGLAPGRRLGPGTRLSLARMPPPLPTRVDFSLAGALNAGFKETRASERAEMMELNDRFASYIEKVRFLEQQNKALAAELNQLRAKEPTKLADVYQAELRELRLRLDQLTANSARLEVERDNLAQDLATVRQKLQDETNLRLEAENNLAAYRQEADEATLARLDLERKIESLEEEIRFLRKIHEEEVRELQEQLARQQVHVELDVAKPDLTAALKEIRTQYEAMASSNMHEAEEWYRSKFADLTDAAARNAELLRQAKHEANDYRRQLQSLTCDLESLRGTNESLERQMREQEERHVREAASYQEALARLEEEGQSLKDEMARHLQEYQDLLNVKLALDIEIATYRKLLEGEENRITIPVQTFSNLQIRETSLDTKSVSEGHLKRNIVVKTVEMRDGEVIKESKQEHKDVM

percent of the total CRYAB co-sedimented (pH 6.3, 39°C to 44°C) [1]: > 35 per cent
Molecule: wild-type αB-crystallin (CRYAB, HSPB5) (from UniProt P02511 1-175) (natural protein)

binding result [3]: binds
B1: wild-type αB-crystallin (CRYAB, HSPB5) (natural protein, human, UniProt P02511 1-175, looked up)
chain: MDIAIHHPWIRRPFFPFHSPSRLFDQFFGEHLLESDLFPTSTSLSPFYLRPPSFLRAPSWFDTGLSEMRLEKDRFSVNLDVKHFSPEELKVKVLGDVIEVHGKHEERQDEHGFISREFHRKYRIPADVDPLTITSSLSSDGVLTVNGPRKQVSGPERTIPITREEKPAVTAAPKK
notes: αB-crystallin (CRYAB, HSPB5), human; Polydisperse oligomer (apparent size about 520 kDa by SEC); also called WT CRYAB; WT αB-crystallin
binding result [2]: binds

binding result [3]: binds | binding result [4]: binds
B2: R120G αB-crystallin (R120G CRYAB) (natural protein, human, UniProt P02511 1-175, looked up)
chain: B1 chain with R120G
notes: αB-crystallin (CRYAB, HSPB5), human, with the disease-causing mutation R120G; Mutation found in a human family with desmin-related myopathy and cataract; Oligomer of apparent size 684 kDa by SEC; also called CRYAB R120G
binding result [2]: binds
